Assay [1] addresses T1, PEDV N protein (recombinant nucleocapsid protein of porcine epidemic diarrhea virus) (Porcine epidemic diarrhea virus, strain …, UniProt Q07499).
T1 construct: also called PEDV N antigen; N-His-tagged recombinant protein; source: recombinant, purified ('highly pure')
The assay can be described thus: SPR; Biacore 3000; purified PEDV N protein (5 µg/ml) amine-coupled to a CM5 chip; Nb1, Nb2, Nb3 flowed at 3 µg/ml each; HBS-EP (10 mM HEPES pH 7.4, 150 mM NaCl, 3 mM EDTA, 0.005% P20), room temperature; 1:1 Langmuir model. Conditions: both partners purified. (SPR reads the build-up and loss of mass on a sensor chip optically.)

Assay [2] deals with T2, PEDV N protein (recombinant nucleocapsid protein of porcine epidemic diarrhea virus) (Porcine epidemic diarrhea virus, strain …, UniProt Q07499).
T2 construct: also called N-His recombinant protein; N-His-tagged recombinant protein; source: recombinant, purified
The assay can be described thus: SPR; Biacore 3000; purified PEDV N protein (5 µg/ml) amine-coupled to a CM5 chip; Nb1, Nb2 and Nb3 each flowed over at 3 µg/ml; HBS-EP (10 mM HEPES pH 7.4, 150 mM NaCl, 3 mM EDTA, 0.005% P20); room temperature; 1:1 Langmuir model.

B1: Nb1 (anti-PEDV N protein nanobody) (VHH)
VHH: QVQLQESGGGSVQSGGSLRLSCAVSGYTYSGLCMGWFRQAPGREREGVATIDTDGYTSYTDSVKGRFTISRDNAKNTLLLQMNSLQPEDTAMYYCAADPRTAIYCSTSRSAKWYNHWGQGTQVTVSS
The term kon denotes the second-order rate constant of association. As to B1, the kon in assay [1] was 197000 M⁻¹ s⁻¹.

B2: Nb1 (VHH)
VHH: B1 VHH
notes: VHH from a Bactrian camel immunised with PEDV N protein, selected by phage display
As usually defined, the koff is the first-order rate constant of dissociation. B2: the koff in assay [2] was determined as 0.00206 s⁻¹.

Values taken from paper PMC6745792, “A novel biotinylated nanobody-based blocking ELISA for the rapid and sensitive clinical detection of porcine epidemic diarrhea virus” (Journal of Nanobiotechnology, 2019).
